Article PMC10805922, “Exosomal secreted SCIMP regulates communication between macrophages and neutrophils in pneumonia” (Nature Communications, 2024)
Where no end group is shown, it is not given here.

Key:
[1] = molecular target: T1, human formyl peptide receptor 1 (FPR1) (human, UniProt P21462 1-350); assay: other fluorescence titration; competitive binding assay; labelled SCIMP^N mixed with serially diluted fMLF (5-1280 nM) and a fixed amount of FPR-containing HEK293 membrane debris, fluorescence at 512 nm measured for 4 min
T1 construct: formyl peptide receptor 1, human, overexpressed in HEK293 cells; also called FPR1-HEK293; source: HEK293, transiently overexpressed
T1 sequence (looked up): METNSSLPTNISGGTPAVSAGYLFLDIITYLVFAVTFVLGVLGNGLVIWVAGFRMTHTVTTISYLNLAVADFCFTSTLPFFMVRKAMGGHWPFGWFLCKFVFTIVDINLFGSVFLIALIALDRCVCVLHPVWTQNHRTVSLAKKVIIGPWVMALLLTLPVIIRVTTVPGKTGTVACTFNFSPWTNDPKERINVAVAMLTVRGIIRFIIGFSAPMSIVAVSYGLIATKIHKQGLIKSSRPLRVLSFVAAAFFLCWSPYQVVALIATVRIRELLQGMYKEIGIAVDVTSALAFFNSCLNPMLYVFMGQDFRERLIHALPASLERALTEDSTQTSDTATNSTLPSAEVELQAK

[2] = molecular target: T2, human formyl peptide receptor 2 (FPR2) (human, UniProt P25090 1-351); assay: as above
T2 construct: formyl peptide receptor 2, human, overexpressed in HEK293 cells; also called FPR2-HEK293; source: HEK293, transiently overexpressed
T2 sequence (looked up): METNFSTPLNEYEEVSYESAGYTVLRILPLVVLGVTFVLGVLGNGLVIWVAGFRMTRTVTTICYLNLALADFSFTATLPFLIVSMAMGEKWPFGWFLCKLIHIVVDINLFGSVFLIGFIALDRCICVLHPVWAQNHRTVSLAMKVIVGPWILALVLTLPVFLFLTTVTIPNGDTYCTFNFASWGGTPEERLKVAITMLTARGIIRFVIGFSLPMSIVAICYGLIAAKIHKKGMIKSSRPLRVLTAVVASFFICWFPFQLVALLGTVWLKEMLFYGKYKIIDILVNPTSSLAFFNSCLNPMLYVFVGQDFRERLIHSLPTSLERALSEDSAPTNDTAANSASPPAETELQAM

[3] = molecular target: T3, murine FPR1 (murine, UniProt P33766 1-364); assay: as above
T3 construct: formyl peptide receptor 1, mouse, overexpressed in HEK293 cells; also called murine formyl peptide receptor 1; source: HEK293 overexpressing FPRs, membrane debris
T3 sequence (looked up): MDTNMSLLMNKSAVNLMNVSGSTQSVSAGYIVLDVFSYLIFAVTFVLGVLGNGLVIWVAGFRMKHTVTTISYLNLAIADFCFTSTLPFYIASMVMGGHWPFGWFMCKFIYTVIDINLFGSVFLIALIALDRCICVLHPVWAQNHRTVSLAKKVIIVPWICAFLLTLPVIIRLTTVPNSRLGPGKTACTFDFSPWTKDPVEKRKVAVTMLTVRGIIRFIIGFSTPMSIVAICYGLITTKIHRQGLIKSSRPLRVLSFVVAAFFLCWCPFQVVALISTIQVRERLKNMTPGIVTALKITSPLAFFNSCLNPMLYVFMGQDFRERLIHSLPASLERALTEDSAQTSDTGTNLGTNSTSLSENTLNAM

[4] = molecular target: T4, murine FPR2 (murine, UniProt O88536 1-351); assay: as above
T4 construct: formyl peptide receptor 2, mouse, overexpressed in HEK293 cells; also called murine formyl peptide receptor 2; source: HEK293 overexpressing FPRs, membrane debris
T4 sequence (looked up): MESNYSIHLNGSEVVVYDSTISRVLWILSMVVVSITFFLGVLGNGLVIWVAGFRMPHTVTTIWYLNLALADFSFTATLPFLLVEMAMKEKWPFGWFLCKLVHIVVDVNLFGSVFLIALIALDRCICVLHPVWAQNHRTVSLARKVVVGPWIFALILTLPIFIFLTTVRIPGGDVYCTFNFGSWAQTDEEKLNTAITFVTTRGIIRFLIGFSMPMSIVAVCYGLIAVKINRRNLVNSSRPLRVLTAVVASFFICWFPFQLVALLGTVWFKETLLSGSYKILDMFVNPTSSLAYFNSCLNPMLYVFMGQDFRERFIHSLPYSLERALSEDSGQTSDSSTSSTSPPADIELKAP

[5] = molecular target: T1, human formyl peptide receptor 1 (FPR1); assay: other fluorescence titration; saturation binding assay; BODIPY FL iodoacetamide-labelled SCIMP^N with membrane component (debris) of HEK293 cells overexpressing FPRs, black/clear bottom 96-well plate, quenching of the label on binding, excited at 370 nm, detected at 512 nm, measured for 4 min; settings: one partner purified
[6] = molecular target: T2, human formyl peptide receptor 2 (FPR2); assay: as above; settings: one partner purified
[7] = molecular target: T3, murine FPR1; assay: as above; settings: one partner purified
[8] = molecular target: T4, murine FPR2; assay: as above; settings: one partner purified

N-Formyl-Met-Leu-Phe (fMLF) (peptide)
IC50 [1]: 55.2 nM
IC50 [2]: 38.4 nM
IC50 [3]: 148 nM
IC50 [4]: 43.1 nM

B1: human SCIMP N-terminus peptide (SCIMP^N, 18aa) (peptide)
peptide: MDTFTVQDSTAMSWWRNN
modifications: also: labeled with BODIPY FL iodoacetamide, site not given here
notes: the 18 amino acids before the transmembrane domain at the N-terminus (extramembrane fragment); also called SCIMP N-terminal peptides; source: synthetic peptide (Chinese-Peptide-Company.Inc), purity more than 95%
Kd [5]: 3.8 nM
Kd [6]: 3.5 nM

B2: murine SCIMP N-terminus peptide (murine SCIMP^N) (peptide)
peptide: MSWWRDNF
modifications: also: labeled with BODIPY FL iodoacetamide, site not given here
notes: N-terminus peptide; source: synthetic peptide (chemically synthesized and purified; Chinese-Peptide-Company.Inc), purity more than 95%
Kd [7]: 1.08 nM
Kd [8]: 0.54 nM
